From publication PMC10881500

Columns and labels:
[1] = molecular target: KFN (Mut3; HuJovi-1 VH T28K, Y32F, A96N), human IgG1 (human); experiment: SPR; Biacore T200; antibody as human IgG1 captured with an anti-human capture kit on CM5 to 200 RU; TRBC1 or TRBC2 as analyte, 150 s contact, 300 s dissociation, 30 μl/min, 25 °C, HBS-P+ pH 7.4; 1:1 Langmuir model
[2] = molecular target: HuJovi-1 (humanized Jovi-1), human IgG1 (human); experiment: as above
Chain of HuJovi-1 (humanized Jovi-1), human IgG1 (human) (heavy, as listed by the source, chain 1 of 2): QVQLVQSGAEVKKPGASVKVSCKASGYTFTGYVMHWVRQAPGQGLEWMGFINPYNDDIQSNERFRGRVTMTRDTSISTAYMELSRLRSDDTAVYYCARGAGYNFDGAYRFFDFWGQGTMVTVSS
Chain of HuJovi-1 (humanized Jovi-1), human IgG1 (human) (light, as listed by the source, chain 2 of 2): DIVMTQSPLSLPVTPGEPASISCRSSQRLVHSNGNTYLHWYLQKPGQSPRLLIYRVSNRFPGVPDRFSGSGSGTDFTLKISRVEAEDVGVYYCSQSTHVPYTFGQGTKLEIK

Chain of KFN (Mut3; HuJovi-1 VH T28K, Y32F, A96N), human IgG1 (human) (heavy, as listed by the source, chain 1 of 2): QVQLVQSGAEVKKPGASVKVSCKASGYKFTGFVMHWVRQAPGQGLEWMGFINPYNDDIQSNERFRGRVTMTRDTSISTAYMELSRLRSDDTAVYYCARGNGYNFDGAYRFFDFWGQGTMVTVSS
Chain of KFN (Mut3; HuJovi-1 VH T28K, Y32F, A96N), human IgG1 (human) (light, as listed by the source, chain 2 of 2): as the sequence (light, as listed by the source, chain 2 of 2) above

| Substance | Kd [1] | koff [1] | Kd [2] | koff [2] |
| --- | --- | --- | --- | --- |
| Recombinant, purified TRBC1 (soluble αβ TCR with the β-chain constant domain TRBC1), SPR analyte | 1.96 µM | 0.155 s⁻¹ | – | – |
| Recombinant, purified TRBC2 (soluble αβ TCR with the β-chain constant domain TRBC2), SPR analyte | – | – | 12.9 µM | 1.29 s⁻¹ |
